According to US20030064496:

B1: purified mouse MEKK2 (protein)
chain: MDDQQALNSIMQDLAVLHKASRPALSLQETRKAKPSSPKKQNDVRVKFEHRGEKRILQVTRPVKLEDLRSKSKIAFGQSMDLHYTNNELVIPLTTQDDLDKAVELLDRSIHMKSLKILLVVNGSTQATNLEPSPSPEDLNNTPLGAERKKRLSVVGPPNRDRSSPPPGYIPDILHQIARNGSFTSINSEGEFIPESMDQMLDPLSLSSPENSGSGSCPSLDSPLDGESYPKSRMPRAQSYPDNHQEFTDYDNPIFEKFGKGGTYPRRYHVSYHHQEYNDGRKTFPRARRTQGTSFRSPVSFSPTDHSLSTSSGSSVFTPEYDDSRIRRRGSDIDNPTLTVTDISPPSRSPRAPTNWRLGKLLGQGAFGRVYLCYDVDTGRELAVKQVQFNPESPETSKEVNALECEIQLLKNLLHERIVQYYGCLRDPQEKTLSIFMELSPGGSIKDQLKAYGALTENVTRKYTRQILEGVHYLHSNMIVHRDIKGANILRDSTGNIKLGDFGASKRLQTICLSGTGMKSVTGTPYWMSPEVISGEGYGRKADIWSVACTVVEMLTEKPPWAEFEAMAAIFKIATQPTNPKLPPHVSDYTRDFLKRIFVEAKLRPSAEELLRHMFVHYH
B2: His-tagged hMEKK2 (polyhistidine-hMEKK2 fusion) (protein)
chain: HHHHHHMDDQQALNSIMQDLAVLHKASRPALSLQETRKAKSSSPKKQNDVRVKFEHRGEKRILQFPRPVKLEDLRSKAKIAFGQSMDLHYTNNELVIPLTTQDDLDKAVELLDRSIHMKSLKILLVINGSTQATNLEPLPSLEDLDNTVFGAERKKRLSIIGPTSRDRSSPPPGYIPDELHQVARNGSFTSINSEGEFIPESMDQMLDPLSLSSPENSGSGSCPSLDSPLDGESYPKSRMPRAQSYPDNHQEFSDYDNPIFEKFGKGGTYPRRYHVSYHHQEYNDGRKTFPRARRTQGTSLRSPVSFSPTDHSLSTSSGSSIFTPEYDDSRIRRRGSDIDNPTLTVMDISPPSRSPRAPTNWRLGKLLGQGAFGRVYLCYDVDTGRELAVKQVQFDPDSPETSKEVNALECEIQLLKNLLHERIVQYYGCLRDPQEKTLSIFMEYMPGGSIKDQLKAYGALTENVTRKYTRQILEGVHYLHSNMIVHRDIKGANILRDSTGNVKLGDFGASKRLQTICLSGTGMKSVTGTPYWMSPEVISGEGYGRKADIWSVACTVVEMLTEKPPWAEFEAMAAIFKIATQPTNPKLPPHVSDYTRDFLKRIFVEAKLRPSADELLRHMFVHYH

Biological target: GST-MKK4 fusion protein (Upstate Biotechnologies, Inc) [GST: P08515]

Row | Protein | phosphorylation of GST-MKK4 in a kinase reaction with [gamma-32P]-ATP (SDS-PAGE, phosphorimager)
1 | B1 | The ability of extracts containing his-tagged hMEKK2 to phosphorylate GST-MKK4 was comparable to the activity of purified mouse MEKK2
2 | B2 | comparable to the activity of purified mouse MEKK2, and significantly above the background levels seen with control extracts
